69 sequences from the domain aggregation screens of Martell et al. (2025) can be followed below.
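Note: 20 min heating vs room temperature control held 20 min.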

The data set is described as follows: soluble fraction after stress (log2 fold change); higher = more stays soluble; pooled small domains, quantitative proteomics. Particulars: stress: 75 degC.
In the case of “HMDIYLDDINRKILHLLSQGVKTKSLRDYIDLSMSAIEKRKKHLKDLFLIEDGKDETLLSEARKKGF”, the “soluble fraction (log2)” value was -1.19.
In the case of “HMDKAGWLPARVRLADYPALKQLAWQVQGVDELTPREALGIYERNWRHLDEAALLPRERNLIDALRLAFG” it was -0.72; in that of “HMDKEQVTFIFRDIDIALRSLDYPIKDIKNTLNIIKSEFSNSKSTELNEQKINFENILKEAISILENND”, -0.855; in that of “HMDKFKDVGARIREARKVQKLSQADLAERLQISTSHMSDIENGKKNIGLDIFMRLTEALQVSADWLL”, -0.437.
The value for “HMDKFTYVVKKEDEQYQIKDILRHNFTFSSRLRKKLKQNNSIFLNGAETVGWATPKEGDIISVRLP” was -0.883; that for “HMDKKEFGKRLKNLRIRNKMSQQAMADSLGYTSRSTINKIEEGINEMSYDKIVRLMELYGLSRPDLGLEPI” was -0.439; that for “HMDKKTMFNEALAKLVSYATAHDNLITMEDVKSFFNGLIDDDSQYKLIYDYLSINKIEIKGFT” was -0.465.
In the case of “HMDKLEKRILDYLLQKSAIDGSTILKISHREMAMDLGTAREVVTRILKKLETGGFVRQGENYLEILK” it was -0.518; in that of “HMDKPIFTLRENEVLYWASMGKTYAEIATIVGISVRTVKFHMGNVVSKLGVSNARQAIRLGVELDLITPMQ”, -2.03.
With “HMDKSFYETFEKIGHGDFDKGLNHVWQHANDGNGTATLLLSKLFLEFGDLDNFEKYLNISAEQSNPVAMKI”, the “soluble fraction (log2)” value is -0.357.
As for “HMDKSNEVLMNHYRKQEINQAKKRLEEEKMSIIQVLQLTNKEVITTDELLEALYISKEQLLDEIINTTQ”, the “soluble fraction (log2)” value is -0.354.
In the case of “HMDKSPVLQLNRDVPAGQQISADDFRTVEIGADGAFRSVPSSDLNAMVGSYAKVRLIAGTLLAREALQSG” it was 0.0261.
In the case of “HMDKSRPVLRVGDSGDWVSKLQTALLEFGYRVAVDGVFGEHTKSAVVHFQNGRRLIADGVVGNLTWDALL” it was -2.4; in that of “HMDKWFPVSSDHKVQVGDYLRTADGLVKVEATHNEYGTFYGKIITAIHDDVVKGETYEYRIDDVQVLA”, -0.00685.
The value for “HMDLAPLQTVDIAINYAKAAELAAILKSSEGGILSDRGGVTVDERTNTLLIRDTLESIDEARKTI” was 0.224; that for “HMDLATQHAAKVNAAILAARRFEREGSWRQVAAKYSEALQLMPGNEQASRGYQQAMAMLDERD” was -0.0717; that for “HMDLDSGVAVLRTLMSQHNLQTDDFQNEIGGKSMVSMILNGTRKLSKNHIQALSGRFNLSPALFF” was -0.819.
For “HMDLEELSNKMNNVFESLSSDLRDIIIMSDIEGLSYEEISHKINIPIGTVRSRLHRARDLMVRVIKEN”, the “soluble fraction (log2)” value is -0.517.
In the case of “HMDLGEQIIEKLRAAGGFLAITDKSPAEEIYELFATSKKNYKKAVGGLYKKGLLVIEDDGIRLTPAGR” it was -0.503; in that of “HMDLHERISSVLLGTGKSNDELAQILGVNKNTISAYKNKHGDLKGIVLEGIVKHFDINPVWLLTGSGTR”, -0.577; in that of “HMDLKSLEFAIVENVQRHDLNPLEEAQGYKRLIDEFSYDQDKVSKFIGKSRSYITNSLRLLNLPLEVLEF”, 0.125.
The value for “HMDLKTNSQLINELEKKIKRPFDREIKNYLNKNLSTDRMISNNEIDKIILFYSGNNEIPNIEKISLILNDN” was -0.0499; that for “HMDLPATVPNLEGLTEVTARNKLTVAGLSLGEVKEVESDKEKGTVVGQSIAYGKRVTKGTKVDIEISSGK” was 0.194; that for “HMDLPDTLSMPNALKVLEDNGFPTSKAKLYKMTSQEQIPFMKYGNKLVFSRKALIEWAHKQLV” was -1.94.
In the case of “HMDLPREKRIEIGLTYIYGIGLKTSQKILAATGIDPNTRVKDLDETTVSKLREYIDHNYRVEGELRS” it was -1.32.
With “HMDLSLQTFNELKTELTNNKITIDQFSEKINEFDITSDIFEISRELFLDDTLSLEDYLVVIENVLIN”, the “soluble fraction (log2)” value was -0.327.
In the case of “HMDLSQTVQAKALARVNVREGAGTHFKSLGKLKKGELLPVFRVGNSWASIWWKGRVAYVHTDYLRFESA” it was -1.98; in that of “HMDLTKLFDHDSEYGKSYVFGKITDEMIARAEQTLGYRMPASYIELLKVQNGGMISDELDESWLTTIYGIG”, -0.359; in that of “HMDMAYEVVKAFHDLQDYKDVKGGKVYHHYDVGDTYPRQGLDPAPDETRIEELLSSGNAQGVPLIAEV”, 0.112.
In the case of “HMDMNVQNYRGLSLDRAKKLISDLGLKYEVVGTGDSVVKQVPSSGSRMSKENGRIILYTENVEDA” it was -0.0826.
In the case of “HMDMPLIGTAIRGWGIISPAQQETLIKMSILTVEDLAAINDEGIKRIGMGGLDLKNKAKAWLLQLK” it was -2.2.
For “HMDMRLADLIGRDGITITFMRPSGKVEIDGEIYDAVSDVGLIDKNEEVEVIKFENAQLVVTKKNKN”, the “soluble fraction (log2)” value worked out at 0.102.
The value for “HMDMSVDQFNQGIRGSELYQQFIHGRGLQQPDGKTREWTDADRNAWRRTLEASGVRIPDGMKIDNAGNLNE” was 0.375; that for “HMDNEIIEEEKITTLMITHNMRDAIKYGNRLIMLNEGRVIFDISGEEKKNLTVQELLEKFEK” was 0.242.
In the case of “HMDNEIMYPIQINGKVRAELFVSTERAMDKQYVLEQAKANEKIQGYLEGNRLVKEIFVPKRIVNLVIAP” it was -0.576; in that of “HMDNIEIGNRIREIRIKKNISVFELAYRTKTSQSHIYQIEGGSQNMSIELLFKIADTLETDPNTILGV”, -3.97.
With “HMDNIPAHIKAKIINYVNRNYPGAIIKDIERKSNGRYEAEIVYNNREYDLLFDAQGNFISASLDDK”, the “soluble fraction (log2)” value was -0.0583.
In the case of “HMDNNFIQSLYPIAIGISKNQLDPWDLINGWVEYYLKNKEKYINHPNLKAVAVLKMKGLLIDHFRKS” it was -3.55.
In the case of “HMDNPKGNLQEAVQAKGNEPIEYRVLNVDGPDHAREFKIAVFIGGKRKGTGVGNSKKKAEEIAAEKAFKRM”, the “soluble fraction (log2)” value was found to be 0.109.
The value for “HMDNPVPVIITDQNFQPQLWKNVGVPTDTLFHELSAANQRKLENLMKTMIQTPLTDNGKISGYAFYSK” was -0.00686.
In the case of “HMDNREKLRQEFLENLKELQEQNDIPQQEIDRVILDYDGVAEFLEDEGALKRYGGQLVDMTAYRAGAIPS” it was 0.0771; in that of “HMDNRLFKMLYYLLDKERATAPELAAEFEVSTRTIYRDVEALSSAGIPIYAEPGRNGGIYLLQD”, -2.3; in that of “HMDNTSNVEKTLRFIRQRGKVSRKEVETLLGSSKFPAISALNELLAENKIVKTGSGPAVRYSVS”, -0.353.
In the case of “HMDNVINDGMQVRFTGNVDINGTPLKIYDRIYTAEGISDDTVVLMLGNDVYARVYLSDVVPAD” it was -0.975; in that of “HMDNWLSGLAVEADRMILTQPGEVFDRLSRAFEATLIRRALASTGGRRIEAAHLLGIGRNTITRKIQDLGL”, -2.62; in that of “HMDPDARQDAEVWLLDFLSAGPRTAQEIFTAARVEGHTRVTVKRAKATAGIQSVKQDFDGPWVWVLPGSG”, -0.455.
On to “HMDPFAYEVKVTDLAAGSSEIRTVYTEQGSFNIPSGMSGNLKIQVRSASMYDEVEPSDWYTIGEEDIN”, for which the “soluble fraction (log2)” value is 0.0347.
The value for “HMDPLASLTPREREVLSLMAQGLSNLAVAERLVVSAGAVEKHISSIFTKLDLAPSEHEHRRVLAVLRYVAG” was -2.86; that for “HMDPPISNDARNAINAKLMKFSELHPNEMKKLVEAYKKEFKVSKISPITLARQGEFLSHAISKIDDT” was -0.0671.
The value for “HMDPQDGTVKFFNGARGFGFITPDGGGADVFVHVSAVERAGLTQLVEGQRVNFQTLPDTKGKGPKAVNLKV” was 0.106; that for “HMDPSDQLYTVPPSAEGLRLDLFLVQHVPHMTRALATQLTGAGQVRVNGRRAKKGDRLPSGAQVRLEQAP” was -0.85; that for “HMDPSHGESRENLDIMRIIDETHLEYPSWGYRKMTDHLRANHGYTINRKRVRRLMRLMDIIALFPG” was -1.33.
Turning to “HMDPSVTGLLTRLGISPQTAQELAGQYEEPYILEKIAIVEAHPEYVKNAAGFVITALQEDWKD”, the “soluble fraction (log2)” value is -0.591.
Regarding “HMDPTHDMHFLVKDQVTGQPLPNMPYRLQLDNGQTLTGRTDALGMTEKISGHSPHIASIEVPY”, the “soluble fraction (log2)” value came out at 0.117.
In the case of “HMDPVILDINSVKALLGISNKADFMAELSRLVVTEGDKKMIIPLAKEVGIDNVAVYKRNEIENISNYK” it was -0.129; in that of “HMDQAEDVLSIPVDALMRGNQVYIKDDTVTEQQGPIPAGFKAVEVETGLISDSYVEIKSGLSEGDTVYVAE”, 0.129; in that of “HMDQESFGYFHVKYADVKQVADLVQKLNIPAVTWADERTRRLVALGSPATLQRISQVLNMVDL”, -0.781.
The value for “HMDQHPYGEDSFRGDNPPAGFDIKGNEDSMKFHEPSSPWYGRTIAEVWFRSAAAAEAAGFVNAV” was -0.0403.
The value for “HMDQINNDLRKLIEFLPEDQKTVLKMRHFQEMSFKEIAKATGVSINTALGRMRYALINLRKLIEENEI” was -2.06; that for “HMDQPLIEPLSERELEVLSLIAAGYSNAEIAERLVIAVGTVKRHINNLYGKLGAGSRTQALAIAREIGLM” was -0.107; that for “HMDQTKYDAIITEAKKLTAEGQYKESEEKLATIPVSDLGKPHYSIVKETVEKLNNQNNEGLKRQEEVAVE” was -0.0329.
Regarding “HMDQVLHQLVEVLRRSEIRISPAETLDAFKVLRNVGIDNKSLLREALALTLAKSIHEKIIFYETFDEFFT”, the “soluble fraction (log2)” value was -1.46.
With “HMDRADIDAVDAEWVRATMERLGLRAKHIESHTGISKSTLSILLNGHRPLTRWHKIAFYYLFKHIEF”, the “soluble fraction (log2)” value is -2.76.
With “HMDRDQNVEEGQRSLKSEMGRFGLLIANMDDLAERVNYGNAEDMYAAIGAGDLRLMQVVHAAEEMLG”, the “soluble fraction (log2)” value was 0.097.
The value for “HMDRENNITAGREILEKELSRLALNMKMVNLQDYAARFNVKHSDDILAGIGAGDIRPAHIVNAIAEKLT” was -0.0151; that for “HMDREQLELYVGEVRVLQVGELRRIAIGNGKVLQASALDRGQLLLIPEAPGQSVLYLWTRDGTERHLSISV” was 0.0104.
The value for “HMDRESFIKLGRELARSAFAHVGQKSTEKALETAADVLRLKDPNEVLARLGSAELTGRQVVQAIYPELI” was -0.277.
The value for “HMDRFRYYITEDSVQRGTYPYVDETTLKRFTSQLHKYEQGMISAYGYLEYSKPLTAEQIKDYTLMPSP” was -0.0579; that for “HMDRFVLQLSKRYYDSSIEGVRKALAAFPVKTELLDQDRGGRPFYHENGKENEPVFRIMFHPEEGM” was -0.421.
